Data taken from patent US20260069689A1 (Regeneron, published 2026).
Substitutions are numbered along the chain they refer to.

B1: mAb14282 (antibody, V domains shown)
VH: QVQLVQSGAEVKKPGASVKVSCKASGYIFTDHYMHWVRQAPGQGLEWMGWINPNSGATNYAQNFQGRVTMTRDTSIITVYMELSRLRSDDTAVYYCARDSSPYMIRYTMDVWGQGTTITVSS
VL: QSALTQPASVSGSPGQSITISCTGTSSDVGSYNLVSWYQQHPGKAPKLMIYELTKRPSGVSNRFSGSKSGNTASLTISGLQAEDEADYYCSSYRGSVTDVVFGGGTKLTVLG
B2: mAb14286 (antibody, V domains shown)
VH: QVQLVQSGAEVKKPGASVKVSCKASGYTFTDYFIHWVRQAPGQGLEWMGWINPTSGGTNYAQKFRGRVTMTRDTSISTAYVELSRLRSDDTALYYCARDLPFYSDTKQFDYWGQGTLVTVSS
VL: QSALTQPASVSGYPGQSITISCTGTSSDVGGYNYVSWYQQHPGKAPKLMIFDVSNRPSGVSNRFSGSKSGNTASLTFSGLQAEDEADYYCSSYTSSSTLVFGGGTKLTVLG
B3: mAb14281 (antibody, V domains shown)
VH: QVQLVQSGADVKKPGASVKVSCKTSGYIFTGYYIHWVRQAPGQGLEWMGWINPNSGGTNSAQKFQGRVTMTRDTSISTVYMELSRLRSDDTAVYYCAKSNSFSVLDYNFDYWGQGTLVTVSS
VL: SSELTQDPAVSVALGQTVRITCQGDSLRSYYASWYQQKPGQAPVLVIYDKNNRPSGIPDRFSGSSSGNTASLTITGAQAEDEADYYCNSRDSSRNHLVVFGGGTKLTVLG
B4: mAb15159 (antibody, V domains shown)
VH: EVQLVESGGGLVQPGGSLRLSCAASGITVSSNYMTWVRQAPGKGLEWVSLIYSGGSTFYADSVRGRFTISRDNSKNTLYLQMNSLRAEDTAVYYCARDLVVYGMDVWGQGTTVTVSS
VL: DIQLTQSPSSLSASVGDRVTITCRASQGISSYLAWYQQKPGKAPKLLIYAASTLQSGVPSRFSGSGSGTDFTLTISSLQPEDFATYYCQHLNSDPHTFGQGTKLEIKR
B5: mAb15157 (antibody, V domains shown)
VH: EVQLVESGGALVQPGGSLRLSCAASGFPFTIYAMTWVRQAPGKGLEWVSVITGSGDSTYYADSVKGRFTISRDNSKNTLYLQMNSLRAEDTAVYYCVKTGEGFFYYYYGMDVWGQGTTVTVSS
VL: QSVLTQPPSVSAAPGQKVTISCSGSSSNIGNSYISWYQQLPGTAPKLLIYVNNKRPSGIPDRFSGSKSGTSATLGITGLQTGDEADYYCGTWDSSLSAGVFGSGTKVTVLG
B6: mAb14234 (antibody, V domains shown)
VH: QVQLVESGGGVVQPGRSLRLSCAASGFTFSSYGIHWVRQAPGKGLEWVAIIWYDGSEKYYADSVKGRFTISRDNSKNTLFLQMNSLEAEDTAVYYCARGPDLLTGYYNYFYYGMDVWGQGTTVTVSS
VL: QSVLTQPPSVSGAPGQRVTISCTGSSSNIGIGYDVHWYQQLPGTVPKLLIYGNTNRPSGVPDRFSGSKSGTSASLAITGLQAEDEADYYCQSYDSSLSSYVFGTGTKVTVLG
B7: mAb14312 (antibody, V domains shown)
VH: EVQLVESGGGLVQPGGSLRLSCAASGFTVSRSYMTWVRQAPGKGLEWVSVIFTGGRTDHADSVKGRFTISRHNSKNTLYLQMNSLRTEDTAVYYCARVAIVGATGAFDIWGQGTMVTVSS
VL: QSVLTQPPSVSGAPGQRVTISCTGSSSNIGAGDDVHWYQQLPGTAPKLLIYGNSNRPSGVPDRFSGSKSGTSASLAITGLQAEDEADYYCQSYDSSLSGSVVFGGGTKLTVLG
B8: mAb14230 (antibody, V domains shown)
VH: EVQLVESGGGLIQPGRSLRLSCAASGFTFDDYAMHWVRQAPGKGLEWVSGISWNSVSIDYADSVKGRFTISRDNAKNSLYLQMTSLTVEDTALYYCAKAFGYETLTGSDYFAYWGPGTLVTVSS
VL: EIVLTQSPGTLSLSPGERATLSCRASQTVISTYLAWYQQKPGQSPRLLIYGASSRATGIPDRFSGSGSGTDFTLTISRLEPEDFAVYYCQQYGSSPQLTFGGGTKVEIKR
B9: mAb15156 (antibody, V domains shown)
VH: QLQLQESGPGLVKSSETLSLTCTVSASITGSTYYWGWIRQPPGKGLEWIGSIYYSGTTYYKASLKSRVTISVDTSKNQFSLKLTSVTVADTAVYYCVSHLLGNYHKYGMDVWGQGTTVTVSS
VL: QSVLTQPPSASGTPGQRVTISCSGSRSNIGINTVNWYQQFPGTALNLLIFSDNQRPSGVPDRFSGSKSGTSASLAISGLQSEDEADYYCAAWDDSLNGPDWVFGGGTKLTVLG
B10: mAb14285 (antibody, V domains shown)
VH: QVQLVQSGAEVKKPGASVKVSCKASGYTFTGYFIHWVRQAPGQGLEWMGWISPISGGTNYAQKFQGRVTVTRDTSITTAYMELSRLTSDDTAVYHCAREGGTWKGDFDYWGQGTLVTVSS
VL: QSALTQPASVSGSPGQSITISCTGTSSDVESYNLVSWYQQHPGKAPKLMIYEGSKRPSGVSNRFSGSKSGNTASLTISGLQAEDEADYYCSSYAGSSTWVFGGGTKLTVLG
B11: mAb14256 (antibody, V domains shown)
VH: QVQLQESGPGLVKPSETLSLTCTVSGGSISSHYWSWIRQPPGKGLEWIGYIYYSGSSNYNPSLKSRVTISVDTSKNQFSLKLNSVTAADTAVYYCARHYDILTGFDWFDPWGQGTLVTVSS
VL: QSVLTQPPSVSGAPGQRVTISCTGSSSNIGTHYDVHWYQQLPGTAPKLLIYGNSNRPSGVPDRFSGSKSGTSASLAITGLQAEDEADYYCQSFDNSLTAPYVFGTGTKVTVLG
B12: mAb14292 (antibody, V domains shown)
VH: EVQLVESGGGLVQPGGSLRLSCVASGFAFSTYEMNWVRQAPGKGLEWVSYISSSGSTIYYADSVKGRLTISRDNVKNSLYLQMNSLRVEDTAIYYCARDAIRNNDILTDPATFDPWGQGTLVTVSS
VL: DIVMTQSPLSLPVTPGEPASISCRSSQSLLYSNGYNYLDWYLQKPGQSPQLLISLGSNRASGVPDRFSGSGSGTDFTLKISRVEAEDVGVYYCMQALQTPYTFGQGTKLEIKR
B13: mAb14280 (antibody, V domains shown)
VH: QVQLVQSGAEVKKPGASVRVSCKASGYTFTGNYIHWVRQAPGQGLEWMAWINPNSGGKNYAQKFQGRVTLTRDTSVNTAYMELSRLRSDDTAMYYCARDVNYNILTGPGGLWGQGTLVTVSS
VL: QSALTQPPSASGSPGQSVTISCTGTSSDVGGYNFVSWYQQHPGKAPKLMIYEVSKRPSGVPDRFSGSKSGNTASLTVSGLQAEDEADYYCSSYAGSNNFVFGTGTKVTVLG
B14: mAb15158 (antibody, V domains shown)
VH: EVQLVESGGGLVQPGGSLRLSCAASGFSFSSNWMSWVRQAPGKGLEWVGNINQDGSEKYYVDSVEGRFTISRDNAKKSLYLQMNSLRAEDTAVYYCARDLGVLWFGDFVDWGQGALVTVSS
VL: DIQMTQSPSSLSASVGDRVTITCRASQAISNSLAWYQQKPGKAPKLLLYAASTLESGVPSRFSGSGSGTDYTLTISSLQPEDFATYYCLQYYGSPRTFGQGTKVEIKR
B15: mAb15151 (antibody, V domains shown)
VH: QVQLVESGGGVVQPGRSLRLSCAASGFVFNSYGMHWVRQAPGKGLEWVAVLWYEGSKNYYADSVKGRFTISRDNSKNTLYLQMNSLRAEDTAVYYCARHGSGSFFGYYLDYWGQGTLVTVSS
VL: DIQMTQSPSSLSASVGDRVTITCRASHNINDFLNWYQQKPGKAPRLLIYAASSLQSGVPSRFSGSGSGTDFTLTISSLQPEDFATYYCQESYTTPPTFGQGTKLEIKR
B16: mAb15150 (antibody, V domains shown)
VH: EVQLVETGGGLIQPGGSLRLSCAAPGFIVSSNYMSWVRQAPGKGLEWVSLLYPGGSTYYADSVKGRFTISRDNSKNTLYLQMNSLRADDTAVYYCARVLPIVEDHFDYWGQGTLVTVSS
VL: DIQLTQSPSFLSASVGDRVTITCRASQGMSSYLAWYQKKPGKAPKLLIYGATILQSGVPSRFSGSGSGTEFTLTISSLQPEDFATYYCQQLNSDPLYMYTFGQGTKLEIKR
B17: mAb15170 (antibody, V domains shown)
VH: B4 VH with S25T, T35S, R64K, D72H, N83S, V101D, Y102F
VL: B4 VL with S31N, A84G, H90Q, P95S, H96P, L104V
B18: mAb15166 (antibody, V domains shown)
VH: EVQLVESGGGLVQPGGSLRLSCAASGFTVTSNYMSWVRQAPGKGLEWVSAIYSGESTYYADSVKGRFTISRDSSKNTLYLQMNSLRVEDTAVYYCASIHDYSNYVGGFDPWGQGTLVTVSS
VL: B10 VL with T25P, V29F, E30G, S54T
B19: mAb15165 (antibody, V domains shown)
VH: EVQLVESGGGLVQPGGSLRLSCAASGFTVSSNYMSWVRQAPGKGLEWVSAIYSGDSTYYADSVKGRFTISKDNSKNTLYLQMNSLRGEDTAVYYCARLGGALQAYDGAFDYWGQGTLATVSS
VL: B10 VL with V29F, E30G, S54N, N62I

Each binder was assayed against SARS-COV-2 RBD extracellular domain expressed with a C-terminal myc-myc-hexahistidine tag (SARS-CoV-2) (assay: SPR (Biacore), mAb captured by anti-human Fc, RBD-mmH in solution, 25 C).

Binder | Kd [nM] | koff [s⁻¹] | kon [M⁻¹ s⁻¹] | t½ [min]
B1 | 4.97 | 0.00957 | 1.93e+06 | 1.2
B2 | 3.22 | 0.0104 | 3.23e+06 | 1.1
B3 | 5.02 | 0.00554 | 1.1e+06 | 2.1
B4 | 2.66 | 0.00013 | 48900 | 88.8
B5 | 4.49 | 0.00125 | 278000 | 9.3
B6 | 20.5 | 0.0113 | 550000 | 1
B7 | 0.606 | 0.000929 | 1.53e+06 | 12.4
B8 | 7.51 | 0.00852 | 1.13e+06 | 1.4
B9 | 4.18 | 0.00121 | 289000 | 9.6
B10 | 11.7 | 0.0211 | 1.8e+06 | 0.5
B11 | 8.32 | 0.00927 | 1.11e+06 | 1.2
B12 | 40.9 | 0.0171 | 417000 | 0.7
B13 | 15.4 | 0.0255 | 1.66e+06 | 0.5
B14 | 0.779 | 8.12e-05 | 104000 | 142

The binders below were run against SARS-COV-2 RBD extracellular domain expressed with a C-terminal myc-myc-hexahistidine tag (SARS-COV-2 RBD-mmH) (SARS-CoV-2) (assay: SPR Biacore, mAb captured on anti-hFc, RBD-mmH analyte, 37 C).

Binder | Kd [nM] | koff [s⁻¹] | kon [M⁻¹ s⁻¹] | t½ [min]
B15 | 24.6 | 0.00442 | 180000 | 2.6
B16 | 0.158 | 7.84e-05 | 493000 | 147
B17 | 0.297 | 8.36e-05 | 283000 | 138
B18 | 95.3 | 0.0334 | 350000 | 0.3
B19 | 3.1 | 0.00147 | 475000 | 7.9
